Data published in article PMC4519330, “An Internally Translated MAVS Variant Exposes Its Amino-terminal TRAF-Binding Motifs to Deregulate Interferon Induction” (PLoS Pathogens, 2015).

Target: the molecule itself
Assay: co-IP; 293T cells co-transfected; lysates in NP40 buffer (50 mM Tris-HCl pH 7.4, 150 mM NaCl, 5 mM EDTA, 1% NP40) precipitated with anti-Flag agarose at 4°C for 4-6 hours; immunoblot

B1: Flag-tagged MAVS50 (natural protein, human, UniProt Q7Z434 142-540, looked up)
chain: MPVQETQAPESPGENSEQALQTLSPRAIPRNPDGGPLESSSDLAALSPLTSSGHQEQDTELGSTHTAGATSSLTPSRGPVSPSVSFQPLARSTPRASRLPGPTGSVVSTGTSFSSSSPGLASAGAAEGKQGAESDQAEPIICSSGAEAPANSLPSKVPTTLMPVNTVALKVPANPASVSTVPSKLPTSSKPPGAVPSNALTNPAPSKLPINSTRAGMVPSKVPTSMVLTKVSASTVPTDGSSRNEETPAAPTPAGATGGSSAWLDSSSENRGLGSELSKPGVLASQVDSPFSGCFEDLAISASTSLGMGPCHGPEENEYKSEGTFGIHVAENPSIQLLEGNPGPPADPDGGPRPQADRKFQEREVPCHRPSPGALWLQVAVTGVLVVTLLVVLYRRRLH
notes: MAVS (mitochondrion antiviral signaling adaptor), variant of ~50 kDa from internal translation initiation at codon 142; also called MAVS50-Flag; Flag-MAVS50
B1: binds.
